Experiments:
[1] = target: T1, NSBP1 (HMGN5), wild type, recombinant (mouse, UniProt Q9JL35 1-406); assay: cross-linking
T1 sequence (looked up): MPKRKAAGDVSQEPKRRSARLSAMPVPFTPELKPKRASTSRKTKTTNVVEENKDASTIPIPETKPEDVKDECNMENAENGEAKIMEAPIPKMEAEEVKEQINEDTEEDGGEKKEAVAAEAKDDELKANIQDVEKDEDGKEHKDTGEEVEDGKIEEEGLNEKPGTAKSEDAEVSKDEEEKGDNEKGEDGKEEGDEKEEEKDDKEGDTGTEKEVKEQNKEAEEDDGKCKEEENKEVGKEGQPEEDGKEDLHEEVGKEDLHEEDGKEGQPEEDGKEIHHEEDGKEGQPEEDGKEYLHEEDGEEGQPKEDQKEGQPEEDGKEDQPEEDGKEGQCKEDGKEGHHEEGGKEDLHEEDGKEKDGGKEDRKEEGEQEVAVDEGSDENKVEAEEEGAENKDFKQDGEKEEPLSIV

[2] = target: T2, HMGB1 (from mouse thymus) (mouse, UniProt P63158 1-215); assay: cross-linking
T2 sequence (looked up): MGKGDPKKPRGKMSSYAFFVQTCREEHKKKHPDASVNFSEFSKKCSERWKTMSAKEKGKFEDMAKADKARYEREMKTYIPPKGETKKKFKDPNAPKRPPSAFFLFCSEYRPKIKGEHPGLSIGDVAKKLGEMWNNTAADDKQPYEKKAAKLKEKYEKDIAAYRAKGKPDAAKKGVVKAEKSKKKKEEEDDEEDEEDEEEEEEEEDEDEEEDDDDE

- binding result [1]: binds
- binding result [2]: binds
B1: linker histone H5 (native, from chicken erythrocytes) (natural protein, UniProt P02259 1-190, looked up)
chain: MTESLVLSPAPAKPKRVKASRRSASHPTYSEMIAAAIRAEKSRGGSSRQSIQKYIKSHYKVGHNADLQIKLSIRRLLAAGVLKQTKGVGASGSFRLAKSDKAKRSPGKKKKAVRRSTSPKKAARPRKARSPAKKPKATARKARKKSRASPKKAKKPKTVKAKSRKASKAKKVKRSKPRAKSGARKSPKKK

From PMC2757144 (Molecular cell, 2009)
